Test: Ni-NTA pull-down of conditioned medium, anti-myc blot
Conditions: glycan lost; control: wild-type ECM1-MH

B1: extracellular matrix protein 1 (ECM1): N444Q (protein)
parent chain: MGTTARAALVLTYLAVASAASEGGFTATGQRQLRPEHFQEVGYAAPPSPPLSRSLPMDHPDSSQHGPPFEGQSQVQPPPSQEATPLQQEKLLPAQLPAEKEVGPPLPQEAVPLQKELPSLQHPNEQKEGTPAPFGDQSHPEPESWNAAQHCQQDRSQGGWGHRLDGFPPGRPSPDNLNQICLPNRQHVVYGPWNLPQSSYSHLTRQGETLNFLEIGYSRCCHCRSHTNRLECAKLVWEEAMSRFCEAEFSVKTRPHWCCTRQGEARFSCFQEEAPQPHYQLRACPSHQPDISSGLELPFPPGVPTLDNIKNICHLRRFRSVPRNLPATDPLQRELLALIQLEREFQRCCRQGNNHTCTWKAWEDTLDKYCDREYAVKTHHHLCCRHPPSPTRDECFARRAPYPNYDRDILTIDIGRVTPNLMGHLCGNQRVLTKHKHIPGLIHNMTARCCDLPFPEQACCAEEEKLTFINDLCGPRRNIWRDPALCCYLSPGDEQVNCFNINYLRNVALVSGDTENAKGQGEQGSTGGTNISSTSEPKEE
In the case of B1, the expression_or_secretion is reported as “no change”.

From paper PMC4215116
